These are literature values, as cited in patent US20090069376A1, “VLA-4 Antagonists” (priority 2005, published 2009).

The data set has as its target VLA-4 (Homo sapiens, UniProt P13612). The note with it: early clinical trials.

Consider natalizumab, for which the receptor occupancy is listed as greater than 80%.
